Laboratory results taken from US20250304673A1 (CATALYM, published 2025).
Residue numbers refer to the chain shown, from its start. Names and notes keep the numbering of the source.

Legend:
[1] = target: T1, recombinant human GDF-15 (human, Disulfide-linked homodimer: two copies of this chain form the 24.6 kDa molecule of Table 1.); experiment: cell-based or functional assay
T1 chain: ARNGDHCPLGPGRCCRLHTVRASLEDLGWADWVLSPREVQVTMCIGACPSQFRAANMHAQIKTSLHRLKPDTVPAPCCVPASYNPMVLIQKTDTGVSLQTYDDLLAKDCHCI

[2] = target: cynomolgus GDF-15 (cynomolgus monkey); experiment: SPR, Biacore T3000, antibody captured by anti-human IgG Fc, GDF-15 injected
[3] = target: T1, recombinant human GDF-15; experiment: as above
Procedure: (§1) Affinity of CTL-002 to recombinant human GDF-15 was determined by measuring surface plasmon resonance on a Biacore T3000. In addition, the affinity to cynomolgus rat and mouse GDF-15 was measured (see Table 2).
(§2) All experiments were performed in 10 mM HEPES buffer, pH 7.4, 150 mM NaCl, 3.4 mM EDTA and 0.05% Tween. anti-human IgG Fc specific antibody (Jackson, Order #109-005-008, Lot #111148) was covalently immobilized by EDC/NHS chemistry on Biacore CM5 Chips (GE Healthcare, Order #61144275, Lot #10236645). For kinetic characterization of the antigen-antibody interaction pulses of increasing GDF-15 concentrations (e.g. 156.3 pM, 312 pM, 625 pM, 1,250 pM) were injected at a flow rate of 30 μl/min. After each measurement cycle (8 min of association followed by 30 min of dissociation) the antibody-antigen complex was resolved by regeneration of the surface with 10 mM glycine-HCl at pH 2.0. For calculation of the dissociation constant of CTL-002 the association and dissociation phases were recorded and evaluated by global fitting using the software BIAevaluation 4.1. For global fit analysis only, these antigen concentrations were taken into account, which allowed the analysis following the Langmuir 1:1 binding model or 1:1 binding with drifting baseline.

[4] = target: T2, rat GDF-15 (rat, UniProt Q9Z0J6 189-303, limits assumed); experiment: as above
T2 construct: the construct used in SPR is not described
T2 sequence (looked up): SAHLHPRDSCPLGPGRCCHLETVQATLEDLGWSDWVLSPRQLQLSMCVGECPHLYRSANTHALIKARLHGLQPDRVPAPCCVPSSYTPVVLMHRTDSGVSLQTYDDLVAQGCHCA
Procedure: as §1, §2

[5] = target: T3, mouse GDF-15 (mouse, UniProt Q9Z0J7 189-303); experiment: as above
T3 construct: the construct used in SPR is not described; also called mGDF-15; murine GDF-15
T3 sequence (looked up): T2 sequence (looked up) with L4A, L63Q, R75K, Q110R
Procedure: as §1, §2

B1: CTL-002 (antibody, human IgG4 S228P, kappa, V domains shown)
VH: QITLKESGPTLVKPTQTLTLTCTFSGFSLSTSGMGVSWIRQPPGKGLEWLAHIYWDDDKRYNPTLKSRLTITKDPSKNQVVLTMTNMDPVDTATYYCARSSYGAMDYWGQGTLVTVSS
VL: DIVLTQSPSFLSASVGDRVTITCKASQNVGTNVAWFQQKPGKSPKALIYSASYRYSGVPDRFTGSGSGTEFTLTISSLQPEDFAAYFCQQYNNFPYTFGGGTKLEIKR
notes: Humanized, hinge-stabilized IgG4 (IgG4 S228P) derived from mouse antibody B1-23; captured by anti-human IgG Fc on the chip in the SPR assay; also called visugromab; CTL-001 IgG4*
Question: For B1, which “EC50 of CTL-002 in the flow-adhesion assay with T cells” value [1] is on record?
Answer: The value was 0.707 µg/mL.

Question: What about the “EC50 of rescue of CD8+ T-cell adhesion, flow-adhesion assay” value [1] of the same binder?
Answer: The value was about 0.7 µg/mL.

Question: And the Kd [2]?
Answer: Its Kd is 0.108 nM.

Question: What about the Kd [3] of the same binder?
Answer: The Kd was 0.0383 nM.

Question: What about the Kd [4] of the same binder?
Answer: Its Kd is 0.449 nM.

Question: What about the Kd [5] of the same binder?
Answer: The Kd was 9.76 nM.
